Reference: paper PMC3865217
pKd: −log10 of the molar value.

Assays:
Test in all cases: SPR
Settings in all cases: EMSA: 5 mM Hepes pH 7.5, 0.05 mM EDTA, 0.014% Nonidet P40, 5% glycerol, 30 min, 23 C; SPR: 5 mM Hepes pH 7.5, 5 mM phosphate pH 7.5, 0.05 mM EDTA …
[1] = system: Yap8bZIP (Saccharomyces cerevisiae)
[2] = system: Yap8bZIPL26A (Saccharomyces cerevisiae)
[3] = system: Yap8bZIPLNNR (Saccharomyces cerevisiae)

Work on Y8RE 25-bp SPR oligomer yielded a pKd [1] of 8.21, a pKd [2] of 7.76 and a pKd [3] of 8.19.
